From PMC6062497 come the findings set out here.

Where “and” joins values, the source holds several entries; their conditions need not be identical. Equal values may be shown once.

For the assay, the target named is TRAIL receptors on SK-Mel-3 cells. The conditions noted are these: ligand.

A word on the Kd: it is a measure of binding affinity in units of concentration. Take “GpL-FLAG-TNC-TRAIL (from UniProt P10039)”: the Kd was 4.82 nM and 2.32 nM.
